The values that follow come from paper PMC10283294, “Chromosome-level genome assembly of Murraya paniculata sheds light on biosynthesis of floral volatiles” (BMC Biology, 2023).

A word on the Km: it is the substrate concentration at which the rate is half of its maximum. Broadly, the kcat/Km is the turnover number divided by the Michaelis constant.

Common to all, as to test: GC-MS of phenylacetaldehyde, Lineweaver-Burk
One data set has as its target T1, Me2G_2382 (PAAS) (Murraya paniculata, UniProt Z9M7G4IQ32).
T1 sequence (Z9M7G4IQ32 1-505): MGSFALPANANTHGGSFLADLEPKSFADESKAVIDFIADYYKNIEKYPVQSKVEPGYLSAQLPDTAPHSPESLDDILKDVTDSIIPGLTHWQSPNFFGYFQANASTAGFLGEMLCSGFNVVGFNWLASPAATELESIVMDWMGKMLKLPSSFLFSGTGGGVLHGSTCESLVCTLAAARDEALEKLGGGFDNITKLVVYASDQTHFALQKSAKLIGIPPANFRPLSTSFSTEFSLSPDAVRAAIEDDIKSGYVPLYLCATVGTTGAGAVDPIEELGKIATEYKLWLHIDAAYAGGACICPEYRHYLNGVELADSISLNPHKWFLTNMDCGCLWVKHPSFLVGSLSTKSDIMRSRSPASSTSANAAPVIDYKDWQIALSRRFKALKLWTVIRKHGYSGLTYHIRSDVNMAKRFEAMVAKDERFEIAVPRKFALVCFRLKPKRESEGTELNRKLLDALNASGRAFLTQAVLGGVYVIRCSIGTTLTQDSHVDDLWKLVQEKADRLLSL
It counts as biochemical. To be noted: pH 8.5 Tris-HCl, 28 °C, 0.2 mM PLP, 0.1 mM EDTA.

The test system of a further data set is Me3G_2284 (PAAS). The format is biochemical, Murraya paniculata. The note with it: pH 8.5 Tris-HCl, 28 °C, 0.2 mM PLP, 0.1 mM EDTA; read-out: apparent Km.
In a further data set the test system is Me4G_0535 (PAAS). The format is biochemical, Murraya paniculata. To be noted: pH 8.5 Tris-HCl, 28 °C, 0.2 mM PLP, 0.1 mM EDTA; read-out: apparent Km.
A further data set concerns Me5G_1302 (PAAS). It counts as biochemical, Murraya paniculata. To be noted: pH 8.5 Tris-HCl, 28 °C, 0.2 mM PLP, 0.1 mM EDTA; read-out: apparent Km.
Another data set addresses T2, Me3G_1222 (PAAS) (Murraya paniculata, UniProt Z9VGT8ZCM8).
T2 sequence (Z9VGT8ZCM8 1-380): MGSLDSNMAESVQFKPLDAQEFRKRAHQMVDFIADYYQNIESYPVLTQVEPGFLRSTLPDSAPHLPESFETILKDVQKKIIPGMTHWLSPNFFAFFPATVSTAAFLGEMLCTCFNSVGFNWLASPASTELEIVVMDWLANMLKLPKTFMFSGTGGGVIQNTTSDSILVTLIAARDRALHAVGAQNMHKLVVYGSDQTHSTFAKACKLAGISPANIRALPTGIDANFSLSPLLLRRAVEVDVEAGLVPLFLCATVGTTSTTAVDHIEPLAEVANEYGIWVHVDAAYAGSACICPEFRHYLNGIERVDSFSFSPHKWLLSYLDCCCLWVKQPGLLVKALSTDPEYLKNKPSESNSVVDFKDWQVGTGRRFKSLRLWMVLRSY
It counts as biochemical. The note with it: pH 8.5 Tris-HCl, 28 °C, 0.2 mM PLP, 0.1 mM EDTA; read-out: apparent Km.

Substrate in data set [1]: N[C@@H](Cc1ccccc1)C(=O)O
The format is biochemical, Murraya paniculata. The note with it: pH 8.5 Tris-HCl, 28 °C, 0.2 mM PLP, 0.1 mM EDTA.

Where a chain is given by its changes, count along the chain named.

`N[C@@H](Cc1ccccc1)C(=O)O` [L-phenylalanine]: at Me2G_2382 (PAAS), the “apparent Km” value is given as “kinetic characterisation of purified recombinant PAAS revealed an apparent Km for L-phenylalanine (L-Phe)”. Also, the Km in the data set on Me3G_2284 (PAAS) amounted to 36.6 ± 4.35 mM; with Me4G_0535 (PAAS), 2 ± 0.54 mM; in the data set on Me5G_1302 (PAAS), 9.89 ± 1.77 mM; at Me3G_1222 (PAAS) it was 9.99 ± 0.46 mM.

B1: Me3G_0317 (PAAS) (Murraya paniculata) (protein)
chain: MGSLTSDLELEYNSNSSINLLDSEEFRRQGHMFVDFMAEYYKTIDKYPVRSQVEPGYLKKRLPESAPYSPESVETILEDVQEHIVPGITHWQSPNYFAYFPATSSVPGILGEMLSSGFNVVGMDWISSPAAVELENIVMDWLGQMLNLPKSFLFSGNGGGVIQGTTCEALLCTLTAARDRVLKKIGRENISKLVVYSSDQTHCAFQKAAQIVGIDRKNIRAIKTTKSSSYGLSAESVLSQINLDVEAGLIPLFLCATVGTTAITAVDPLRPLCDVAKQFGMWVHVDAAYAGSACICPEFRHFIDGVECVDSFSFNPHKWLFTSLDCCCLWVKDPSCLLSTLSTNPHYLKNEATDQEPKGQEVGYKDWQITLCRRFRSLKLWLVIRNFGVANLRNFIRSHVGMAKLFERLVHSDKRFEVAFPRNFSLVCFRVTPSAVMDKLRTKYKNGTHDQYRQLSEEERTNEFNRELLESINVSGKVFMTHAIVGGIYVLRFAAGNSMTMESHVREAWTVVQEHLEAF
Regarding B1, in data set [1], the Km was 2.7821 ± 0.73 mM and the kcat/Km turned out to be 45.2 M⁻¹ s⁻¹.

B2: Me2G_2379 (PAAS) (Murraya paniculata) (protein)
chain: MGSFALPPNGNTHGRSFSADLEPKSFADEAKAVIDFIADYYKNIEKYPVQSKVEPGYLSAQLPDTAPHSPESLDDILKDVTDSIIPGLTHWQSPNFFGYFQANASTAGFLGEMLCSGFNVVGFNWLASPAATELESIVMDWMGKMLKLPSSFLFSGTGGGVLHGSTCESLVCTLAAARDEVLEKLGGGFDNITKLVVYASDQTHFALQKSAKLIGIPPANFRPLSTSFSTEFSLSPDAVRAAIEDDIKSGYVPLYLCATVGTTGAGAVDPIEELGKIATEYKLWLHIDAAYAGGACICPEYRHYLNGVELADSISLNPHKWFLTNMDCGCLWVKHPSFLVGSLSTKSDIMRSRSPASSTSANAAPVIDYKDWQIALSRRFKALKLWTVIRKHGYSGLTYHIRSDVNMAKRFEAMVAKDERFEIAVPRKFALVCFRLKPKRESEGTELNRKLLDALNASGRAFLTQAVLGGVYVIRCSIGTTLTQDSHVDDLWKLVQEKADRLLSLQEPEHARC
Regarding B2, in data set [1], the Km was found to be 3.7265 ± 0.83 mM and the kcat/Km was 100 M⁻¹ s⁻¹.

B3: Me2G_2381 (PAAS) (Murraya paniculata) (protein)
chain: B2 chain with P8A, G10A, R15G, S360R, R512G
As to B3, in data set [1], the Km turned out to be 1.7943 ± 0.60 mM and the kcat/Km was determined as 62.9 M⁻¹ s⁻¹.

B4: Me1G_2960 (PAAS) (Murraya paniculata) (protein)
chain: MDAEQLRENAHKMVDFIADYYKSIENFPVLSQVQPGYLHNLIPDSAPNHPESLQNVLDDIQEKILPGVTHWQSPNYFAYFPSNSSVAGFLGEMLSAGLNIVGFSWITSPAATELEMIVLDWLAKLLKLPEDFLSTGQGGGVIQGTASEAVLVVLLAARDEALKRVGKNSLEKLVVYASDQTHSALQKACQIGGIHRQNFRVLKTDSSTNYSLSPDSLAEAISRDLTMGLIPFFLGATVGTTSSTAVDPLLALGNIAKSNGMWFHVDAAYAGSACICPEYRQYIDGVEKADSFNMNAHKWFLTNFDCSALWVKDRNTLIQSLSTNPEFLKNKVSFYFSVHNMFLYYFLAQLSRPKSKSHLFVFVHINCIMNCPFNNVMLTVVELSTLSGENGNILASQANMVVDYKDWQIPLGRRFRSLKLWMVLRLYGLENLQGYIRNHIQLAKHFEGLVAQDSRFEVVTPRIFSLVCFRLLPPHNDEDHGNKLNHNLLDAVNSTGKIFISHTVLSGKYILRFAVGAPLTEGRHVNAAWEVVRDRASALLARLSTE
As for B4, in data set [1], the Km was found to be 1.7851 ± 0.66 mM and the kcat/Km was 55.9 M⁻¹ s⁻¹.
